From paper PMC12009303, “Structural characterization of antibody-responses following Zolgensma treatment for AAV capsid engineering to expand patient cohorts” (Nature Communications, 2025)

B1: mAb3-7 (antibody, V domains shown)
VH: QVQLQESGPGLVKPSETLSLTCTVSGGSISNYYWNWIRQPPGKGLEWIGYVHYSGSTNYNPSLKSRVSVSVDTSKNQFSLNLGSVTAADTAVYYCARQSRSYYNEVITDPKYNFDYWGQGTLVTVSS
VL: QSALTQPASVSGSPGQSITISCTGTSSDVGGYDYVSWYQQHPGKAPKLMIYDVSNRPSGVSNRFSGSKSGNTASLTISGLQAEDEADYYCSSYTSISTLVFGGGTKLTVL
B2: mAb3-6 (antibody, V domains shown)
VH: EVQLVESGGGLVQPGGSLRLSCSASGFHFSSYEMNWVRQAPGKGLEWVSYISSSGTYIDYADSVKGRFTISRDNPANSLYLQMYSLRAEDTAVYYCARRLWFGELPYSYYYGMDVWGQGTTVTVSS
VL: ALTQPASVSGSPGQSITISCTGTSSDIGGYNYVSWYQQHPGKAPELLIFDVSNRPSGVSNRFSGSKSGNTASLTISGLQAEDEADYHCCSYTRTSTVIFGGGTKLTVL

Biological target: T1, AAV9 capsid (adeno-associated virus serotype 9, UniProt Q6JC40)
T1 construct: also called wtAAV9; AAV9 vector; copies: 60
Experiment: far-Western, overlay or dot blot; native dot immunoblot: native capsids adsorbed onto nitrocellulose; human mAbs at ~1 µg/ml in PBS with 6% milk, 0.1% Tween-20, 1 h; anti-human-HRP
Details: both partners purified

Row | Binder | binding result
1 | B1 | binds
2 | B2 | binds
